Reference: US10801046B2, “Methods and materials for biosynthesizing multifunctional, multivariate molecules via carbon chain modification” (INVISTA NORTH AMERICA S.A.R.L., priority 2016, dated 2020)

B1: SEQ ID NO: 121: Haematobacter missouriensis aminotransferase (protein, listed as Haematobacter missouriensis)
chain: MMDTLPNSLAARDVKYLLHPNTNARMHEQNGPMVISRGDGIHVYDDAGKEYIEALAGLWSVAVGFGEKRLVEAAQRQMSTLPYYHIFSSKSHEPAIDLAETLVKMTPEHLTRVFYTNSGSEANDTVVKMIWYYNNVLGRPEKKKIIARKNGYHGITVASASLTGLPINHKDFDLPLPQMKHVTTPHFYRFGEEGETEEQFSDRLAQEIEDMILAEGPETVAAFIGEPVIGAGGVLVPPKGYWEKVQKVLKKYDILLVADEVIMGFGRSGKTFACEYYGIKPDFLVLSKQITSSYQPLAAIMLTDAIYQAIADGSQKNGAFGHGYTASGHPVAMAVAIENLKIIEERGLVANAEKVGAYMQKRLREFADHPLVGEVRGVGLIAAVELVADKATKAKFDPVGKAGAIYTRKSAENGLINRAIGDTICFCPPLIITEAQVDEMIARFSKSLDETAAELKG
B2: SEQ ID NO: 138: Thalassospira profundimaris WP0211 aminotransferase (protein)
chain: MNHRPNSLHMSDIAHSMHPYTNMRLHEEKGPMIMAEGNGARVTDSEGKEYIEGLAGLWSVAVGFSETRLADAAYAQLKRLPYYHSFAHKAHEPSIRLAEKLVEMTPEGLNRVFFTNSGSEANDTVVKMAWFLNNGLGRPEKKKFLSRTKAYHGITIASGSLTGLAGNQKDFDLPAIPVTHLSCPHFWRYGEEGETETEFTARLLKELEDTIIAEGPETIAAFIGEPVMGAGGVMTPPEGYWPGVVEICHKYDILVVSDEVINGFGRTGARFGCEKYGFTPDILVTSKQLTSSYMPLAAIVVNDKVYNAIADNTAKLGNFGHGFTGTGHPVACAVGLENLNIIEERDLMGNAKRLEPMFQDGLRAFADHPLIGEIRGVGLIAGLEMADKKTKQPFGKPGTVAAKVVALAAEEGLICRNVYDTVALCPPLIVTEDDVREIHARLGRALDRALDWAKSEGML
modifications: Thalassospira profundimaris WP0211
notes: Thalassospira profundimaris WP0211 aminotransferase
B3: SEQ ID NO: 170: Acidimicrobium ferrooxidans aminotransferase (protein)
chain: MGRFWHPFGQLYESDTNPVVFVRGEGIWVYDDTGRRYLDATAALWYANVGHGRAEIADAIAAQARELAGYSTFGTFSNRPAEELAEFLSARSPMPESEVFFVSGGGDAVETAVKLARRYFSLVGQPERTVLISRTNGYHGTWGFGTSLGGIPANRTGFGELIPTTVQVPWDDVEAVEAAIVANGPERVAAVIAEPVIGAGGVYPPPPGYFEALGATCRRHGVLLIVDSVICGFGRLGTWFGIERLGVEPDLITFAKGVTSGYLPLGGVMVSGRVAAPFKQPGAPVFRHGPTYGGHPTCTAAGIANCRILEDEQILARGAVLEGELLARLRPLASSALVAEVRGGLGLLGAVELRSDLLAEHPDALARLARLALERGIIVRVLATSIALSPPLIIEPAEIGVIVEGLADALDALAAEL
modifications: Acidimicrobium ferrooxidans; Acidimicrobium ferrooxidans (strain DSM 10331 / JCM 15462 / NBRC 103882 / ICP)
notes: Acidimicrobium ferrooxidans aminotransferase
B4: SEQ ID NO: 168: Rhodospirillum centenum aminotransferase (protein)
chain: MPSTAPHLGNSIASRDIASLLHPYTNLKAHESVGPMVITGGRGVTVVDDAGREYIEGVAGLWCTSLGFDEPRLVEAAVRQLRTLPFYHAFAHKSHEPGIELAEKLVALAPVPMSKAFFACSGSEANDTAVKLVWYYNNALGRPQKKKIIGRIKAYHGVTVASASLTGLPNNHRDFDLPIDRILHTDCPHWYRFHEEGEDEEAFASRLAASLEALIQREGPETVAAFIAEPVMGAGGVIVPPRTYFEKIQAVLRKHDVLLIADEVICGFGRTGAMFGSETFGLKPDIMTMAKALTSAYMPLSAVLVSEPIYRACVAESEKIGVFGHGYTYSGHPVSCAVALETLKIYEERDIVAHTRAVGARLQEGLARYRSHPLVGEVRGVGLIAGVELVADKATRQPFDPKLGVAARLAGFAQGHGAILRPIGDTLGFSPPLIITPEEVDELVARFGRALDDTTAWLEHEHRFRPA
modifications: Rhodospirillum centenum (strain ATCC 51521 / SW)
notes: Rhodospirillum centenum aminotransferase
B5: SEQ ID NO: 172: Pseudomonas taiwanensis SJ9 aminotransferase (protein)
chain: MSQSNILLAKKDVQHHLHPYTDARLHQDVGPLIIDRGEGVYVFDVEGKRYIEAMSGLWSVALGFSNERLVKAAEQQMRKLPFYHIFTHKGHGPSIELAEKLIEIAPVPMSKVFFTNSGSEANDTVVKMIWYRNNALGKPEKKKFISRLNAYHGITAVSASLTGLPVNQRGFDVPLPGFHHVSCPHFYRNGQPGETEEQFADRMAAELESVILREGPETIAAFYGEPLMGAGGVIVPPRTYWEKMQAVCRKYDILIVADEVICGFGRTGKMFGCETFGIQPDVMVISKQMSSSYQPIAAILINEKVFEGIADQSRALGTLGHGFTASGHPVASAVALENIKIIQEQNLVGHAAEMGELLRAKLAGFADHPMVGEVRGCGLIAAVELVTDRKTKAPFETVGRLGRFLAARAQAHGMITRPIGDSIAFCPPLISTKQEIQEIADIFGKAFEDTERWFSQGGK
modifications: Pseudomonas taiwanensis SJ9
notes: Pseudomonas taiwanensis SJ9 aminotransferase
B6: SEQ ID NO: 171: Tistrella mobilis aminotransferase (protein)
chain: MAYSPNSPEARDIAYHLHSYTDARRHEETGSVVLEKGDGVFVEDIHGNRYIEAMAGLWSVALGFSEKRLADAAARQMAKLPFAHTFSYKSNGPVIDLAEKLISLAPVPMSKVFFTNSGSEANDTILKLLWYRSNSMGQPQRKKIISRVRGYHGVTIASASLTGLPNNHRSFDLPIANVLHTGSPHHWKDANPGESEEDFATRRAEELEAMILAEGPETIMAFIGEPVMGAGGVVVPPATYWEKIQAVLAKYDILLIADEVICGFGRTGNMFGSQTYDMRPDIMTMSKQLSSSYLPISAFMINEKVYGPIADESHRIGVLGHGFTAGGHPVASAVALENLKIIEERDLVANAREMGERLRGRFHALEGHPLVGEVRGVGLIAAVELVTNKEAKTALEAPGALGGKVAAALQARGVIVRNMLDAIAFCPPLIIKAEEVDMIADRFEAVLNDVAAEVL
modifications: Tistrella mobilis (strain KA081020-065)
notes: Tistrella mobilis aminotransferase
B7: SEQ ID NO: 169: Marine sediment metagenome aminotransferase (protein)
chain: MTVQPNSIEARDIAFHLHSYTNARKHETNGPVVIDKGEGVFVTDTDGNRYIEAMAGLWSVAVGFGEKRLVDAAAKQMGKLPYYHTFTHKSHSPAIELAEKLVAMAPVPMSKAYFTNSGSEANDTMMKLVRYRSNALGQPQKKKFISRMRGYHGVTLASASLTGLVNNHRDFDLPIEGVLHTTCPHYWREGRDGESEEDFATRCAEDLEAMIQAEGPETIAAFIGEPVMGAGGVVVPPATYWEKIQAVLKRHDILLVADEVICGFGRTGEMFGSQTYGIEPDIMTLSKALSSSYLPISALLINEKVYGPIADRSAEIGTLGTGYTASGHPVAAAVALENLKIIEERDLVGNAREMGTLMQCRLRELENHPLVGEVRGVGLIAAIELVTDKKAKVAMQPPGAMAAQAFAILQKNGVISRAIGDALAFCPPLIIEAGHIDTIVETTRRSLDELQASL
modifications: Description of Unknown: Marine sediment metagenome
notes: Marine sediment metagenome aminotransferase

Assay: In vivo aminotransferase activity screening, 7-aminoheptanoate by LC-MS
Format: cell-based, Escherichia coli
Conditions: in vivo conversion of 7-oxoheptanoate to 7-aminoheptanoate, 120 aminotransferases screened
Method: A 165-member aminotransferase library from Twist on IPTG-inducible T7- pUC expression vectors was co-transformed into T7 Express lysY/Iq with a constitutive expression pJ23150-derived plasmid bearing the phosphopantetheinyl transferase sfp from Bacillus subtilis, CAR_Srot from Invista and BioC from Serratia marcescens (UniprotKB Accession No. P36571 (SEQ ID NO: 165)). The resulting strains were incubated in 0.5 ml of rich media (terrific broth or LB containing 8% glycerol) supplemented with 0.4 mM IPTG and received 1 g/L monomethyl heptanedioate, 1 g/L heptanedioate, or no organic acid addition, depending on the experiment. Following incubation overnight at 37° C. in a shaking incubator, cells were pelleted and the supernatants were analyzed using LC-MS for 7-aminoheptanoate or monomethyl 7-aminoheptanoate. A Vibrio fluvialis aminotransferase (UniProtKB Accession No. F2XBU9 (SEQ ID NO: 128)) was used as a positive control.

Molecule | 7-aminoheptanoate yield compared to the positive control (F2XBU9)
B1 | higher 7-aminoheptanoate yields
B2 | higher 7-aminoheptanoate yields
B3 | higher 7-aminoheptanoate yields
B4 | higher 7-aminoheptanoate yields
B5 | higher 7-aminoheptanoate yields
B6 | higher 7-aminoheptanoate yields
B7 | higher 7-aminoheptanoate yields
